Results from the supplement of paper PMC10724198.
± gives the standard deviation of the averaged measurements.

Tested on: Saccharomyces cerevisiae
Assay: protein stability index of tFT-peptide fusion (C-terminal peptide) (PSI (0-1 scale)); higher = more stable (slower turnover)
Details: temperature: 30 C
Procedure: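 MPS profiling in S. cerevisiae of the yeast C-terminome library: the last 12 aa of each annotated ORF are fused to the C-terminus of a sfGFP-mCherry timer, after a GGGS linker. Cells are FACS-sorted into 8 mCherry/sfGFP bins and deep-sequenced. PSI runs from 0 (unstable) to 1 (stable); wild type and das1Δ backgrounds, two technical replicates each.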

[1] = genetic background: das1 deletion

Sequence	protein stability index [1]	protein stability index (genetic background: wild type)
EALTKASNVNKL [CIT3 C-terminal 12 aa]	0.6972 ± 0.0031	0.65 ± 0.041
EAQSARNEKPLK [COS8 C-terminal 12 aa]	0.685 ± 0.021	0.691 ± 0.029
EDRQAFFDSLKE [YGK1 C-terminal 12 aa]	0.724 ± 0.036	0.651 ± 0.025
EDSKEYFEAANK [TSA1 C-terminal 12 aa]	0.71 ± 0.021	0.704 ± 0.0061
EDTVNDKANFEG [STL1 C-terminal 12 aa]	0.673 ± 0.015	0.655 ± 0.015
EEFLTLLGRRSI [FOL2 C-terminal 12 aa]	0.708 ± 0.01	0.723 ± 0.012
EEWYTSNHDSLA [PRP18 C-terminal 12 aa]	0.723 ± 0.013	0.698 ± 0.014
EFEKAQEINKKA [YRB1 C-terminal 12 aa]	0.712 ± 0.017	0.694 ± 0.02
EGDIEPLKRILK [UBP2 C-terminal 12 aa]	0.706 ± 0.012	0.675 ± 0.088
EGRKVKKVSFAQ [LOC1 C-terminal 12 aa]	0.7297 ± 0.0035	0.7111 ± 0.0032
EHYSDGDVCIII [DAL3 C-terminal 12 aa]	0.68 ± 0.032	0.68 ± 0.016
EIASCSSSIYSE [DSE3 C-terminal 12 aa]	0.696 ± 0.022	0.711 ± 0.035
EIIRVGPQESII [MRP49 C-terminal 12 aa]	0.723 ± 0.019	0.749 ± 0.034
EIRKIMMEEQPR [CHM7 C-terminal 12 aa]	0.6863 ± 0.0051	0.66 ± 0.0089
EKLPSKFTFKRE [ARN1 C-terminal 12 aa]	0.696 ± 0.012	0.6817 ± 0.0011
ELERDITISREY [MIP1 C-terminal 12 aa]	0.701 ± 0.028	0.698 ± 0.068
ELIEDPRKMLLW [KGD2 C-terminal 12 aa]	0.694 ± 0.014	0.69 ± 0.033
ELLRLHNCHLPV [RMA1 C-terminal 12 aa]	0.713 ± 0.018	0.7 ± 0.0081
ELPGVAFLSEKK [PGK1 C-terminal 12 aa]	0.728 ± 0.016	0.67 ± 0.0094
ELTKALDLLNSI [VTA1 C-terminal 12 aa]	0.691 ± 0.015	0.694 ± 0.047
ENISSPLGKKSR [PSY4 C-terminal 12 aa]	0.691 ± 0.0098	0.706 ± 0.0047

Sequence	protein stability index [1]	protein stability index (genetic background: wild type)
ENYYPSSLTLDI [JLP1 C-terminal 12 aa]	0.72281 ± 0.00028	0.696 ± 0.062
EPTKKGFLVCRM [YMR320W C-terminal 12 aa]	0.771 ± 0.037	0.702 ± 0.05
EQIELKNFFVDV [YCR016W C-terminal 12 aa]	0.6881 ± 0.0062	0.6997 ± 0.0015
EREKVDIHIPQV [BEM3 C-terminal 12 aa]	0.711 ± 0.02	0.701 ± 0.011
ESIEELLRKTLE [ZNG1 C-terminal 12 aa]	0.687 ± 0.02	0.735 ± 0.067
ESIVDFVERHED [IMO32 C-terminal 12 aa]	0.714 ± 0.017	0.691 ± 0.019
ESPIDAEKNFAR [INA1 C-terminal 12 aa]	0.693 ± 0.0098	0.6821 ± 0.0024
ETMGARLKIDGK [YJR149W C-terminal 12 aa]	0.7079 ± 0.0065	0.689 ± 0.011
ETPSQTSQEATQ [ERG6 C-terminal 12 aa]	0.731 ± 0.0089	0.722 ± 0.015
ETSITNDNESQQ [PPZ1 C-terminal 12 aa]	0.695 ± 0.0074	0.701 ± 0.04
EVALAPSSNMIF [YKL083W C-terminal 12 aa]	0.716 ± 0.02	0.713 ± 0.0034
EVDELPEGYDRS [TAH1 C-terminal 12 aa]	0.6846 ± 0.0037	0.6764 ± 0.002
EVLAADNTRVPC [YLL067C C-terminal 12 aa]	0.6968 ± 0.0039	0.677 ± 0.028
EVLERSVLLRKR [MDJ2 C-terminal 12 aa]	0.699 ± 0.017	0.688 ± 0.01
EVSQYAAFFQDD [CTM1 C-terminal 12 aa]	0.719 ± 0.02	0.712 ± 0.028
EVTAKTSLVSPK [ROX1 C-terminal 12 aa]	0.7021 ± 0.004	0.676 ± 0.018
EVVKRYLKMRQD [PUP3 C-terminal 12 aa]	0.7 ± 0.011	0.5999 ± 0.0049
FAFSFPITNVLE [YAL016C-B C-terminal 12 aa]	0.703 ± 0.012	0.683 ± 0.049
FAQDLMKCTYKI [NUP145 C-terminal 12 aa]	0.708 ± 0.0095	0.656 ± 0.018
FATFELAMRLLG [YMC1 C-terminal 12 aa]	0.674 ± 0.015	0.194 ± 0.013
FCESDSIKMYPT [FYV10 C-terminal 12 aa]	0.706 ± 0.0071	0.698 ± 0.026

Sequence	protein stability index [1]	protein stability index (genetic background: wild type)
FCISFPCFGLSI [AIM26 C-terminal 12 aa]	0.679 ± 0.037	0.704 ± 0.003
FCLQCFKDYCYS [SPO1 C-terminal 12 aa]	0.6444 ± 0.0063	0.654 ± 0.032
FDSEHFYSPVQT [PRP3 C-terminal 12 aa]	0.7065 ± 0.0023	0.71 ± 0.024
FDVELVDVKSAA [FPR2 C-terminal 12 aa]	0.6795 ± 0.0018	0.687 ± 0.037
FEVDVDSLFKLY [MET1 C-terminal 12 aa]	0.707 ± 0.018	0.442 ± 0.0068
FFHRISHFLESA [YLR299C-A C-terminal 12 aa]	0.704 ± 0.018	0.695 ± 0.025
FGDCHLENSHLH [SPO75 C-terminal 12 aa]	0.7041 ± 0.0012	0.719 ± 0.017
FGICAIHWGIKV [COQ5 C-terminal 12 aa]	0.385 ± 0.02	0.411 ± 0.013
FGLFKKKNKSKK [SVL3 C-terminal 12 aa]	0.727 ± 0.027	0.726 ± 0.073
FGSSRSEWYLAL [YPL114W C-terminal 12 aa]	0.701 ± 0.029	0.709 ± 0.031
FGWFDMNMEQGF [SEF1 C-terminal 12 aa]	0.7562 ± 0.0074	0.757 ± 0.023
FHSMAHLSLHQY [YOR394C-A C-terminal 12 aa]	0.7202 ± 0.00097	0.478 ± 0.091
FIREFVLKNYSK [SNO2 C-terminal 12 aa]	0.669 ± 0.0099	0.71 ± 0.068
FIYKRNKKFILN [YPQ1 C-terminal 12 aa]	0.725 ± 0.014	0.21 ± 0.019
FKCVHTPCNVYI [YER078W-A C-terminal 12 aa]	0.679 ± 0.0076	0.665 ± 0.037
FKVDDNVDFPSA [RPN2 C-terminal 12 aa]	0.681 ± 0.016	0.744 ± 0.089
FLLVLFFICIIL [YOL014W C-terminal 12 aa]	0.366 ± 0.013	0.3063 ± 0.0029
FMGGFLSKGNKR [ROG3 C-terminal 12 aa]	0.706 ± 0.012	0.683 ± 0.029
FMGLGCVISEEL [TFB3 C-terminal 12 aa]	0.693 ± 0.01	0.685 ± 0.097
FNISDYFSDIHE [ORC5 C-terminal 12 aa]	0.744 ± 0.02	0.7 ± 0.023
FPFELRREQTEG [PET130 C-terminal 12 aa]	0.6976 ± 0.0057	0.755 ± 0.061

Sequence	protein stability index [1]	protein stability index (genetic background: wild type)
FPKLALVCTIFS [YGR146C-A C-terminal 12 aa]	0.369 ± 0.019	0.403 ± 0.009
FQERIKNKNILK [CWC27 C-terminal 12 aa]	0.739 ± 0.008	0.729 ± 0.0083
FRCKFKERKVDG [REP1 C-terminal 12 aa]	0.682 ± 0.0088	0.674 ± 0.015
FRSSAGLRSSKV [MIC10 C-terminal 12 aa]	0.742 ± 0.016	0.706 ± 0.011
FSGDMSFTVYQL [POA1 C-terminal 12 aa]	0.741 ± 0.01	0.699 ± 0.041
FSIVALEVWRVG [OXR1 C-terminal 12 aa]	0.552 ± 0.013	0.567 ± 0.022
FSSEQGNPKEEK [FMP10 C-terminal 12 aa]	0.702 ± 0.034	0.733 ± 0.03
FTIYEKVLVMLA [CTP1 C-terminal 12 aa]	0.286 ± 0.017	0.20202 ± 3.5e-06
FTRRGWSSFFKQ [PCL9 C-terminal 12 aa]	0.684 ± 0.0086	0.6647 ± 0.0024
FVDGIANSKKST [SRB7 C-terminal 12 aa]	0.699 ± 0.01	0.682 ± 0.023
FVFVNEFDVYTY [GPI12 C-terminal 12 aa]	0.716 ± 0.018	0.704 ± 0.033
FWEKRWKDGWDE [ERV1 C-terminal 12 aa]	0.756 ± 0.053	0.681 ± 0.031
FYLHGNGSDNLF [YGR153W C-terminal 12 aa]	0.7164 ± 0.0016	0.711 ± 0.031
GAALMALLGKWA [ZRT2 C-terminal 12 aa]	0.725 ± 0.021	0.6381 ± 0.0041
GARIGLQGYKSH [YNL184C C-terminal 12 aa]	0.70081 ± 0.00013	0.688 ± 0.015
GDKLISPLKKAF [TKL1 C-terminal 12 aa]	0.675 ± 0.013	0.711 ± 0.044
GDYSFNGRVTDF [SDH8 C-terminal 12 aa]	0.711 ± 0.015	0.697 ± 0.011
GEKKQKGQALQF [RPL42A C-terminal 12 aa]	0.68 ± 0.025	0.662 ± 0.051
GETSSSSAVAEV [AQY1 C-terminal 12 aa]	0.6874 ± 0.0045	0.659 ± 0.03
